This series addresses cardiac troponin I (cTnI) (human, UniProt P19429 2-210). The experiment in a line: ISFET aptasensor; 1 mM Mg2+; AC mode 2.4 V, 10 kHz 0.1 Vp-p; LoD 3.27 ng/mL, linear range 3.27-625 ng/mL (no Kd); 10 mM Tris-HCl pH 7.7, 8 mM NaCl, 1 mM MgCl2; temperature not stated. The note with it: protein: recombinant.

Chain of cardiac troponin I (cTnI) (P19429 2-210): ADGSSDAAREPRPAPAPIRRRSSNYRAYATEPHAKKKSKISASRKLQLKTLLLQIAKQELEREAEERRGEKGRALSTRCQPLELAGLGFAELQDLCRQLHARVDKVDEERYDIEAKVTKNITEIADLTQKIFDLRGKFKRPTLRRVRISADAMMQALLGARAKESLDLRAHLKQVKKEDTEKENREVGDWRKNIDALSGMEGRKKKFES

B1: Tro6 (ssDNA)
DNA: CGCATGCCAAACGTTGCCTCATAGTTCCCTCCCCGTGTCC
modifications: 5'-SH (thiol)
For B1, the binding result is recorded as “binds”.

(Values after article PMC11125907, “A Portable Readout System for Biomarker Detection with Aptamer-Modified CMOS ISFET Array”.)
